Measured values reported in US20230279131A1.

T1: human IL-2Rγ expressed on cells (NK-92, Jurkat) (human) (UniProt P31785)
T1 sequence (looked up): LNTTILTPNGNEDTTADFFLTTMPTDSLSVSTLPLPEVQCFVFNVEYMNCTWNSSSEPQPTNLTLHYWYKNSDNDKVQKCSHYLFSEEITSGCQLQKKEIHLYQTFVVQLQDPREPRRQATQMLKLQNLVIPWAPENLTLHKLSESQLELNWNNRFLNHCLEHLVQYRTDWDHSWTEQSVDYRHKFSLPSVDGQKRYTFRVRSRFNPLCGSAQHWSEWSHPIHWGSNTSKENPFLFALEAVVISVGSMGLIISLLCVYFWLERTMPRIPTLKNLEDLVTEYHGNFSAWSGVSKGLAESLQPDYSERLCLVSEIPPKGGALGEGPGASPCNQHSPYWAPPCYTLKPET

T2: mouse IL-2Rγ expressed on cells (MC/9) (mouse) (UniProt P34902)
T2 sequence (looked up): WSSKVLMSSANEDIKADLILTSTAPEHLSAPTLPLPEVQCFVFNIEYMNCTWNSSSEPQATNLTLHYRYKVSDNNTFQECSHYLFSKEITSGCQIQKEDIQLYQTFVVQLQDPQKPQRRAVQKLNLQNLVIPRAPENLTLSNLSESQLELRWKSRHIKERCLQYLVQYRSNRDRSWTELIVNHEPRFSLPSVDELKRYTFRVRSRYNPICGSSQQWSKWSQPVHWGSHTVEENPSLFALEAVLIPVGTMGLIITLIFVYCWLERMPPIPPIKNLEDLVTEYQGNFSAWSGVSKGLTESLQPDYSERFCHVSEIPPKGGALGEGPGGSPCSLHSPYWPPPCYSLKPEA

T3: human IL2Rγ expressed on cells (human) (UniProt P31785)
T3 sequence (looked up): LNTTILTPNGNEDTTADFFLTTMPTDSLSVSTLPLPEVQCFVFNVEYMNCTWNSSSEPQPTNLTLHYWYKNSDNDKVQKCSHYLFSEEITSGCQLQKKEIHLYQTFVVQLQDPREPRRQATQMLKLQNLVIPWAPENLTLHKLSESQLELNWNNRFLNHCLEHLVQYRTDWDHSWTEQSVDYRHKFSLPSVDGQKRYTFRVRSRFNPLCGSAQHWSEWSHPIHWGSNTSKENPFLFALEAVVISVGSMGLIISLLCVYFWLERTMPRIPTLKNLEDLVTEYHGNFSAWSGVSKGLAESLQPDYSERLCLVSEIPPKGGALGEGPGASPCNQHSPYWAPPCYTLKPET

B1: H4H13541P (antibody, human IgG4 S228P, kappa, V domains shown)
VH: EVQLVESGGGVVRPGGSLRLSCAASGFIFDDYDMSWVRQPPGRGLEWVSGIDWFGGTRGYADSMKGRFTISRDNAKNSLYLQMNSLRVEDTAFYYCARGGAIVGAVTPFDYWGQGTLVTVSS
VL: DIQMTQSPSSLSASVGNRVTLSCRASQSINTYLSWYQQRPGKAPKLLIYAASSLQSGVPSRFSGSGAGTDFTLTISSLQPEDFATYYCQQSYSAPLTFGGGTKVEIKR
B2: H4H12858P (antibody, human IgG4 S228P, kappa, V domains shown)
VH: EVQLVESGGDLVQPGGSLRLSCTASGFIFRNYAMNWVRQAPGKGLEWLSGILGSNDNTYYVDSVKGRFTISRDNSRNTLYLQMNSLRAEDSAVYYCAKGDAGGFDYWGQGTLVTVSS
VL: DVVMTQSPLSLPVILGQPASISCRSSQSLVSSDGNTYLNWFQQRPGQSPRRLIYKVSNRDSGVPDRFSGSGSGTDFTLKISRVEAEDVGAYYCMQGSYWPPTFGQGTKLEIKR
B3: H4H13538P (antibody, human IgG4 S228P, kappa, V domains shown)
VH: EVQLVESGGGLVQPGGSLGLSCAASGFTFSNYAMSWVRQAPGKGLEWVSAVSGGGGGTYYADSVKGRFTISRDNSKNTVLLQMNSLRAEDTAVYYCARGRTGGLDYWGPGTLVTVSS
VL: DVVMTQSPLSLPVIFGQPASISCRSSQSLVDSDGNTYLNWLQQRPGQSPRRLIYEVSNRDSGVPDRFSGSGSGTDFTLTISRVEAEDVGIYYCMQGTRWPPTFGGGTKVEIKR
B4: H4H12857P (antibody, human IgG4 S228P, kappa, V domains shown)
VH: EVQLVESGGGVVRPGGSLRLSCAASGFTFDDFDMSWVRQGPGKGLEWVSGINWHGSSTGYADSVKGRFTISRDNAKNSLYLQMSSLRAEDTALYHCVRGGTIVGATTPLDYWGQGTLVTVSS
VL: DIQMTQSPSSLSASVGDRVTMTCRASRTISSYLSWYQQKSGKVPNLLIFGASSLQSGVPSRFSASGSGTDFTLIISSLQPEDFATYYCQQSYSSPLTFGGGTKVEIKR
B5: H4H12899P (antibody, human IgG4 S228P, kappa, V domains shown)
VH: QVQLVESGGDLVKPGGSLRLSCATSGFTFSDFYMTWIRQAPGKGLEWISYISNSGSIVKYADSVKGRFTISRDNAKNSLYLQMNSLRAEDTAIYYCARFYGDRWGQGTLVTVSS
VL: DIQLTQSPSFLSASVGDRVTITCWASQGISTFLAWYQQKPGKAPKLLIYAASTLQSGVPSRFSGSGSGTDFTLTISSLQPEDFATYHCQQLNNYPWTFGQGTKVEIKR
B6: H4H12900P (antibody, human IgG4 S228P, kappa, V domains shown)
VH: QVQLVESGGGLVKPGGSLRLSCEASGFTFNDFYMTWIRQAPGKGLEWIAYISKSGDKMRYADSVKGRFSTSRDNAKNSLSLQMNSLRAEDTAVYYCARFYGDIWGQGTLVTVSS
VL: DIQLTQSPSFLSASVGDRVTITCWASQDISSFLVWYQQKPGKAPNLLIYAASALQSGVPSRFSGSGSGTEFTLTISSLQPEDFASYYCEQLNNYPWTFGQGTKVEIKR
B7: H4H12874P (antibody, human IgG4 S228P, kappa, V domains shown)
VH: QVQLVESGGGVVQPGRSLRLSCAASGFNFRNFGMHWVRQAPGKGLEWVAGILYDGSSKYYADSVKDRFTISRDNSKNTLFLQMNSLRAEDTAMYYCAKEEDTAMVPFDSWGPGTLVTVSS
VL: DIQLTQSPSFLSASVGDRVTITCWASQGISSYLAWYQQKPGKAPTLLIYAASTLQSGVPSRFSGSGSGTEFTLTISSLQPEDFASYYCQQLKSYPLTFGGGTKVEIKR
B8: H4H12863P (antibody, human IgG4 S228P, kappa, V domains shown)
VH: QVQLVESGGGVVQPGRSLRLSCTASGFTFRSYDMYWVRQAPGKGLEWVSVITYDGNNKYYADSVKGRFTISRDNSKNTLFLQMSSLRPEDTAVYYCAKRGLIWVGESFDYWGQGTLVTVSS
VL: DIQMTQSPSTLSASVGDRVTITCRASQSINSWLAWYQQKPGKAPNLLIYKASSLESGVPSRFSGSGSGTEFTLTISSLQPDDFATYYCQQYKSYSWTFGQGTKVEIKR
B9: human IL-7 (ligand, UniProt P13232 26-177, looked up)
chain: DCDIEGKDGKQYESVLMVSIDQLLDSMKEIGSNCLNNEFNFFKRHICDANKEGMFLFRAARKLRQFLKMNSTGDFDLHLLKVSEGTTILLNCTGQVKGRKPAALGEAQPTKSLEENKSLKEQKKLNDLCFLKRLLQEIKTCWNKILMGTKEH

Experiments:
[1] = molecular target: T1, human IL-2Rγ expressed on cells (NK-92, Jurkat) (human); experiment: flow cytometry on NK-92 cells (endogenous human IL-2Rg), antibody 10 ug/ml
[2] = molecular target: T1, human IL-2Rγ expressed on cells (NK-92, Jurkat) (human); experiment: flow cytometry on Jurkat cells (endogenous human IL-2Rg), antibody 10 ug/ml
[3] = molecular target: T2, mouse IL-2Rγ expressed on cells (MC/9) (mouse); experiment: flow cytometry on MC/9 cells (endogenous mouse IL-2Rg), antibody 10 ug/ml
[4] = molecular target: Human IL2Rγ extracellular domain expressed with a C-terminal mouse IgG2a Fc tag (human); experiment: SPR Biacore 4000, mAb captured by anti-human Fc, 25 C
[5] = molecular target: T3, human IL2Rγ expressed on cells (human); experiment: cell-based or functional assay

Row | Binding Ratio (Sample over unstained MFIs) [1] | Raw MFI [1] [MFI] | Binding Ratio (Sample over unstained MFIs) [2] | Raw MFI [2] [MFI] | Binding Ratio (Sample over unstained MFIs) [3] | Raw MFI [3] [MFI] | 100 nM Ag Bound [4] [RU] | EC50 [M] of ligand; NK92/hIL7R/STAT3-luc [5] [M] | Binder
1 | 37 | 7050 | – | – | – | – | – | – | B1
2 | 2 | 228 | 1 | 99 | 1 | 199 | – | – | B2
3 | 1 | 235 | – | – | – | – | – | – | B3
4 | 37 | 5490 | 1 | 103 | 1 | 198 | – | – | B4
5 | 18 | 2670 | 1 | 114 | 1 | 167 | 1 | – | B5
6 | 28 | 4200 | 1 | 110 | 1 | 128 | 4 | – | B6
7 | 44 | 6580 | 6 | 507 | 1 | 202 | – | – | B7
8 | 87 | 13000 | 13 | 1170 | 1 | 185 | – | – | B8
9 | – | – | – | – | – | – | – | 3.9e-11 | B9
